We go through two molecules from patent US20200306340A1 (ACCELERON PHARMA, published 2020).

The target of experiment [1] is T1, GDF11 (UniProt O95390 299-407).
T1 sequence (looked up): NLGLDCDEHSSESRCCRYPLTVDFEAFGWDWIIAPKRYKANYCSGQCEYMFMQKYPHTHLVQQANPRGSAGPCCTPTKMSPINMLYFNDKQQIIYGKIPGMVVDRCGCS
In words: cell-based or functional assay.

The target in experiment [2] is T2, activin A (UniProt P08476 311-426).
T2 sequence (looked up): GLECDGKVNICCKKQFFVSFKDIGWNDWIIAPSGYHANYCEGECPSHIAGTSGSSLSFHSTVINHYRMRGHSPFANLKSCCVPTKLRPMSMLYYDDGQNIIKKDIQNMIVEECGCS
As to the kind of experiment: cell-based or functional assay.

Experiment [3] concerns the target T3, BMP9 (UniProt Q9UK05 320-429).
T3 construct: also called GDF2
T3 sequence (looked up): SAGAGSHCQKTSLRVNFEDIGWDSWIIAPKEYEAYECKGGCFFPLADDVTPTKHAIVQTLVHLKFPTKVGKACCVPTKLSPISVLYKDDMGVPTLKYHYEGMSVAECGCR
In words: Biacore SPR; receptor-Fc captured by anti-Fc antibody, ligand injected; transient interaction. In general terms: SPR reads the build-up and loss of mass on a sensor chip optically.

In experiment [4] the target is T1, GDF11. As to the kind of experiment: Biacore SPR; receptor-Fc captured by anti-Fc antibody, ligand injected. The method, then:
(§1) Ligands were injected and allowed to flow over the captured receptor protein.

Experiment [5] deals with T4, GDF8 (UniProt O14793 267-375).
T4 construct: also called myostatin
T4 sequence (looked up): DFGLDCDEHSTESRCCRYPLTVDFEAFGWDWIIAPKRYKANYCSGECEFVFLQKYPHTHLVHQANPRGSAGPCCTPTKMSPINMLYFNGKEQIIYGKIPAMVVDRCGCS
The experiment is described as above. The method, then: as §1

In experiment [6] the target is T5, GDF3 (UniProt Q9NR23 251-364).
T5 sequence (looked up): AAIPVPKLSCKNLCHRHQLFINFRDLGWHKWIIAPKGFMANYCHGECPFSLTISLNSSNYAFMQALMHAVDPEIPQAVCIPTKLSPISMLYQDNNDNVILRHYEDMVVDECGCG
The experiment is described as above. As to the method:
as §1

Experiment [7] addresses T6, BMP10 (UniProt O95393 317-424).
T6 sequence (looked up): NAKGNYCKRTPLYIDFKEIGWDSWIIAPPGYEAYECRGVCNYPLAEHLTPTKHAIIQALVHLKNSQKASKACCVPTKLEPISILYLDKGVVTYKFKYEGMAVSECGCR
Described as above. As to the method: as §1

Experiment [8] deals with T7, activin B (UniProt P09529 293-407).
T7 sequence (looked up): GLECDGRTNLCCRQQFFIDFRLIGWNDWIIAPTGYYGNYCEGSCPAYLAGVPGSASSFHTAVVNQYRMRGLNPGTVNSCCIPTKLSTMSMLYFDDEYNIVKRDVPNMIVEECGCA
Described as above. As to the method:
as §1

Experiment [9] has as its target T2, activin A. The experiment is described as above. The method, then: as §1
Experiment [10] deals with T8, BMP6 (UniProt P22004 382-513, limits assumed).
T8 sequence (looked up): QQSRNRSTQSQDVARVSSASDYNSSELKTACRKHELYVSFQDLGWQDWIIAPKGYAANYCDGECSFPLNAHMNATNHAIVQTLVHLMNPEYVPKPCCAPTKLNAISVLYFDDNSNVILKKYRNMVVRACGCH
The description is as above. As to the method:
as §1

Regarding “ActRIIB-Fc A64 (20-134) (from UniProt Q13705 20-134) (Fc fusion)”, the GDF11 Inhibition Activity, KI (A-204 CAGA12 luciferase reporter gene assay) in experiment [1] was determined as 1000 nM. The molecule also displayed an Activin Inhibition Activity, KI (A-204 CAGA12 luciferase reporter gene assay) in [2] of 1000 nM.

B1: ALK4-Fc:ActRIIB-Fc heterodimer (Fc fusion)
chain 1: SGPRGVQALLCACTSCLQANYTCETDGACMVSIFNLDGMEHHVRTCIPKVELVPAGKPFYCLSSEDLRNTHCCYTDYCNRIDLRVPSGHLKEPEHPSMWGPVE
chain 2: GRGEAETRECIYYNANWELERTNQSGLERCEGEQDKRLHCYASWRNSSGTIELVKKGCWLDDFNCYDRQECVATEENPQVYFCCCEGNFCNERFTHLPEAGGPEVTYEPPPTAPT
As usually defined, the Kd is the free concentration of one partner at which half of the binding sites on the other are occupied at equilibrium, for simple one-to-one binding. High values mean lower affinity, low ones higher affinity. The term koff denotes the first-order rate constant of dissociation. A high value points to a short-lived complex. By kon is commonly meant a measure of how fast the partners come together. The low end stands for slow association, the high end for fast association. Regarding B1, the Kd worked out at 3.4 nM in experiment [3]; 0.003 nM in [4]; 0.55 nM in [5]; 4.9 nM in [6]; 0.074 nM in experiment [7]; 0.006 nM in experiment [8]. The Kd in experiment [9] came to 0.012 nM; in experiment [10], 2.7 nM. Also, the koff in experiment [4] was 0.00011 s⁻¹; in [5] it was 0.00021 s⁻¹; in experiment [6], 0.017 s⁻¹; in experiment [7], 0.0041 s⁻¹; in [8], 4e-05 s⁻¹; in [9] it was 0.00015 s⁻¹. In addition, the koff in experiment [10] worked out at 0.0055 s⁻¹. Also, the association rate constant (kon) in experiment [4] turned out to be 3.8e+07 M⁻¹ s⁻¹; in [5], 390000 M⁻¹ s⁻¹; in experiment [6] it was 3.4e+06 M⁻¹ s⁻¹; in experiment [7], 5.6e+07 M⁻¹ s⁻¹; in [8], 7.1e+06 M⁻¹ s⁻¹; in experiment [9], 1.3e+07 M⁻¹ s⁻¹. In experiment [10], this molecule showed a kon of 2e+06 M⁻¹ s⁻¹.
